Target: the molecule itself
Test: negative stain electron microscopy; Cp149 assembly reaction, 50 mM HEPES, 300 mM NaCl, 10 uM dimer, no CpAM

B1: Hepatitis B virus core protein assembly domain, Cp149 (domain or fragment)
chain: MDIDPYKEFGATVELLSFLPSDFFPSVRDLLDTAAALYRDALESPEHCSPHHTALRQAILCWGDLMTLATWVGTNLEDPASRDLVVSYVNTNVGLKFRQLLWFHISCLTFGRETVLEYLVSFGVWIRTPPAYRPPNAPILSTLPETTVV
notes: Hepatitis B virus subtype adyw core protein (Cp), assembly domain: the first 149 residues of the 183-residue protein; Purified as a homodimer; Dimers were assembled into capsids at 10 uM dimer in 300 mM NaCl, 50 mM HEPES pH 7.5; The apo capsid comparator PDB 1QGT is cited without its construct being named; also called purified dimeric assembly domain; apo-capsids; source: E. coli, purified by …
B1: binds.

Reference: article PMC5788503, “Hepatitis B virus core protein allosteric modulators can distort and disrupt intact capsids” (eLife, 2018)
